{"source": "paper PMC3209416", "proteins": {"B1": {"name": "T. maritima KDPG aldolase (wt-TMA; TM KDPG aldolase) (Thermotoga maritima MSB8; N150I) (protein)", "chain": "MKMEELFKKHKIVAVLRANSVEEAKEKALAVFEGGVHLIEITFTVPDADTVIKELSFLKEKGAIIGAGTVTSVEQCRKAVESGAEFIVSPHLDEEISQFCKEKGVFYMPGVMTPTELVKAMKLGHTILKLFPGEVVGPQFVKAMKGPFPIVKFVPTGGVNLDNVCEWFKAGVLAVGVGSALVKGTPDEVREKAKAFVEKIRGCTE"}, "B2": {"name": "T. maritima KDPG aldolase (wt-TMA; TM KDPG aldolase) (Thermotoga maritima MSB8; G34R/R190I/V172A) (protein)", "chain": "B1 chain with G34R, I150N, V172A, R190I"}, "B3": {"name": "T. maritima KDPG aldolase (wt-TMA; TM KDPG aldolase) (Thermotoga maritima MSB8; G83E/K9T) (protein)", "chain": "B1 chain with K9T, G83E, I150N"}, "B4": {"name": "T. maritima KDPG aldolase (wt-TMA; TM KDPG aldolase) (Thermotoga maritima MSB8; V136M) (protein)", "chain": "B1 chain with V136M, I150N"}, "B5": {"name": "T. maritima KDPG aldolase (wt-TMA; TM KDPG aldolase) (Thermotoga maritima MSB8; A30V) (protein)", "chain": "B1 chain with A30V, I150N"}, "B6": {"name": "T. maritima KDPG aldolase (wt-TMA; TM KDPG aldolase) (Thermotoga maritima MSB8; I52F/T185A/V135M) (protein)", "chain": "B1 chain with I52F, V135M, I150N, T185A"}}, "substrate": "CCCCC(O)CC(=O)C(=O)O", "assay": "purified protein", "assay_type": "biochemical, Thermotoga maritima", "conditions": "retro-aldol cleavage, HEPES 100 mM pH 7.5, 34 °C", "note": "Changes are numbered by the printed parent chain. Names and notes keep the numbering of the source."}
{"protein": "B1", "values": [{"measurement": "Km", "setting": "mutant TM 8", "result": "49 ± 19", "unit": "mM"}, {"measurement": "kcat", "setting": "mutant TM 8", "result": "1.2 ± 0.3", "unit": "s⁻¹"}, {"measurement": "kcat/Km", "setting": "mutant TM 8", "result": "25 ± 5", "unit": "M⁻¹ s⁻¹"}]}
{"protein": "B2", "values": [{"measurement": "Km", "setting": "mutant TM 1", "result": "9 ± 2", "unit": "mM"}, {"measurement": "kcat", "setting": "mutant TM 1", "result": "0.07 ± 0.01", "unit": "s⁻¹"}, {"measurement": "kcat/Km", "setting": "mutant TM 1", "result": "9.3 ± 1.8", "unit": "M⁻¹ s⁻¹"}]}
{"protein": "B3", "values": [{"measurement": "Km", "setting": "mutant TM 2", "result": "90 ± 20", "unit": "mM"}, {"measurement": "kcat", "setting": "mutant TM 2", "result": "0.5 ± 0.1", "unit": "s⁻¹"}, {"measurement": "kcat/Km", "setting": "mutant TM 2", "result": "5.5 ± 1", "unit": "M⁻¹ s⁻¹"}]}
{"protein": "B4", "values": [{"measurement": "Km", "setting": "mutant TM 4", "result": "23 ± 4", "unit": "mM"}, {"measurement": "kcat", "setting": "mutant TM 4", "result": "0.36 ± 0.02", "unit": "s⁻¹"}, {"measurement": "kcat/Km", "setting": "mutant TM 4", "result": "16 ± 2", "unit": "M⁻¹ s⁻¹"}]}
{"protein": "B5", "values": [{"measurement": "Km", "setting": "mutant TM 5", "result": "14 ± 5", "unit": "mM"}, {"measurement": "kcat", "setting": "mutant TM 5", "result": "0.75 ± 0.1", "unit": "s⁻¹"}, {"measurement": "kcat/Km", "setting": "mutant TM 5", "result": "54 ± 10", "unit": "M⁻¹ s⁻¹"}]}
{"protein": "B6", "values": [{"measurement": "Km", "setting": "mutant TM 6", "result": "8 ± 3", "unit": "mM"}, {"measurement": "kcat", "setting": "mutant TM 6", "result": "0.13 ± 0.02", "unit": "s⁻¹"}, {"measurement": "kcat/Km", "setting": "mutant TM 6", "result": "17 ± 6", "unit": "M⁻¹ s⁻¹"}]}
